Data taken from patent US20050064507A1, “Determining kinase specificity” (priority 2003, published 2005).

Columns and labels:
Assay type in all cases: biochemical
[1] = test system: PKC; test: In vitro phosphorylation by PKC (average of isoforms alpha, epsilon, delta, theta); settings: for PKC average: average of PKC-alpha, -epsilon, -theta, normalized to best substrate; for average (phosphorylation by PKC-theta, -delta, -epsilon, -alpha): average over PKC-theta, -epsilon and -alpha at 10 and 1 uM peptide, relative to best substrate
Protocol: (§1) The conditions of the kinase assay and the amount of active kinase used varied with the kinase and with the accuracy needed. For a typical experiment, 5-20 ng of kinase was used per well and each peptide pool was assayed in duplicate wells. Note that the absolute amount of kinase used was not usually a critical parameter, because the desired information related to specificity of the kinase not its absolute activity, and robustness of the assay depends on comparisons of the same amount of kinase on different peptides. The combination of kinase concentration and assay duration was modified to assure that the stoichiometry of peptide phosphorylation never exceeded 5%. The choice of kinase buffer depended on the kinase being analyzed. For studies of PKC, 100 mM HEPES, 0.05% Triton-X100, 1 mM CaCl2, 20 mM MgCl2, 0.2 mg/ml phosphatidyl serine (Avanti Polar Lipids), PMA 100 ng/ml was typically used. The lipid stock was prepared by transferring 3 mg phosphatidyl serine into iced mixture of 450 μl water plus 50 μl of 10% Triton-X100, sonicating 10 times on ice for 1 sec each.
(§2) The kinase reaction mixture was assembled by sequential addition to a tube held on ice of: 5 μl peptide (100 μM for final concentration of 10 μM), 15 μl of kinase (typically 5 ng/well, in appropriate kinase buffer), 30 μl of ATP (1 uCi/well of ^32P-gamma ATP in a stock of 167 μM cold ATP in the kinase buffer; for final concentration for 100 μM ATP). The mixture was rapidly warmed to desired reaction temperature (30° C. for PKC) and incubated for the desired duration (usually 10 minutes). The kinase assay was terminated by transfer to 4° C. water batch, and rapid addition of an equal volume (50 μl) of stop solution [0.1M ATP+0.1M EDTA in water, pH 8].
(§3) The peptides were then captured from the reaction mixture by transfer to a Reacti-Bind Streptavidin High Binding Capacity Coated Plates (HBC) (Pierce Biotechnology) as follows. The HBC plates were pre-rinsed three times with PBS/Tween PBS/Tween20 0.05% (PBS/Tween). Part of all of the reaction mixture was then transferred wells of a HBC plate pre-filled with 90 μl of phosphate-buffered saline (PBS); typically each aliquots of each phosphorylation reaction were transferred to duplicate HBC plates to assure accuracy by additional replication
(§4) For kinase assays done at the standard peptide concentration of 10 μM, the peptide concentration in the reaction mixture becomes 5 μM after addition of the stop solution; consequently 10 μl of the reaction (50 pMoles of peptide) was transferred to the HBC plate. More generally, the amount of reaction mixture transferred was estimated to be about 50 pMoles of peptide. […] The HBC plates were incubated for 0.5 to 1.5 hr at room temperature for complete binding of biotinylated peptides to plate-bound streptavidin. The HBC plates were then washed extensively with PBS/Tween. Five washes were done routinely and additional wash steps were added if the wash solution removed from the plate had measurable radioactivity as detected using a Geiger counter. This step is essential to obtaining a good the signal to noise ratio because the fraction of radioactivity incorporated in the peptides was a tiny fraction of the total in the reaction mixture. The wells were air-dried. A volume of 40-50 μl of microScint-20 (Packard Instruments) was added to each well. The plates were covered with stick-on film sheet. Radioactive emissions were measured in a TopCount NXT Microplate Scintillation and Luminescence Counter (Packard Instruments). Typically samples were counted for 5 minutes (or more) to improve the signal to noise ratio when counts were low.
Many peptides that are good substrates for PKC enzymes were identified using the methods of the invention. For example, Tables 4 and 5 provide a listing of peptides identified as potentially useful kinase substrates. […]

[2] = molecular target: T1, PKC-epsilon (Homo sapiens, UniProt Q02156); test: In vitro kinase assay: peptide phosphorylation by PKC-epsilon; settings: for PKC-epsilon phosphorylation: normalized to best substrate; for phosphorylation by PKC epsilon: peptide concentration 1 uM
T1 construct: purchased Calbiochem
T1 sequence (Q02156 1-737): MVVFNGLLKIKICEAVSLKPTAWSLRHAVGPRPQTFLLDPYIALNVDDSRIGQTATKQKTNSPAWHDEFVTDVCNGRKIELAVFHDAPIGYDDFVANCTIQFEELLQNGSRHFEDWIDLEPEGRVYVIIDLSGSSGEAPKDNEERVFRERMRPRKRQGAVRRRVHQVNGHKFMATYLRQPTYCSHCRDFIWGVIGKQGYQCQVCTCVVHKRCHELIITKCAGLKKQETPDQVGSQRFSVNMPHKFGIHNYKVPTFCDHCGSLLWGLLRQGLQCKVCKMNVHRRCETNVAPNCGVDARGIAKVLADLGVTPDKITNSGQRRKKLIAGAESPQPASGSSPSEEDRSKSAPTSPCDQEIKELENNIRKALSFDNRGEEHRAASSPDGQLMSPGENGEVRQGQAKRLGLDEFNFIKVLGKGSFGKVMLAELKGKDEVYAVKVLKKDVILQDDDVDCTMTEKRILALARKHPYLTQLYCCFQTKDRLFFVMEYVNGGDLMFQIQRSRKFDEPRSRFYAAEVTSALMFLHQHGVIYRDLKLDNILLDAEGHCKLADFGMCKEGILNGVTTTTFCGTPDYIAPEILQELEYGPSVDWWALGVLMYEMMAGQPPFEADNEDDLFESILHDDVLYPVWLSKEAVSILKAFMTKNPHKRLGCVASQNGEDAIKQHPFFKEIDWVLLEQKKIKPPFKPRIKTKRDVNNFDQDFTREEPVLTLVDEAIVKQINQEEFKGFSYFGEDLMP
Protocol: (§5) Catalytically active preparations of the kinases of interest were either purchased or prepared. Purchased and tested active kinase preparations including the following: PKC-alpha, PKC-delta, PKC-epsilon, PKC-zeta, PKC-mu, PKA, PKG from Calbiochem, ROK alpha/ROCK-II, active from Upstate Biotechnology, and AKT1 from Panvera.
as §1, §2, §3
as §4, with “low. […]” for “low.”

[3] = molecular target: T2, PKC-alpha (Homo sapiens, UniProt P17252); test: In vitro kinase assay: peptide phosphorylation by PKC-alpha; settings: for PKC alpha phosphorylation: normalized to best substrate
T2 construct: purchased Calbiochem
Protocol: as §5, §1, §2, §3
as §4, with “low. […]” for “low.”

| Substance | PKC average [1] [%] | PKC-epsilon phosphorylation [2] [%] | PKC alpha phosphorylation [3] [%] | average (phosphorylation by PKC-theta, -delta, -epsilon, -alpha) [1] | phosphorylation by PKC epsilon [2] | phosphorylation by PKC alpha ([3]; peptide concentration 1 uM) | phosphorylation by PKC alpha ([3]; peptide concentration 10 uM) |
| --- | --- | --- | --- | --- | --- | --- | --- |
| 110 (EGGDRRASGRRK) [compound 110] | 15 | 4 | 30 |  |  |  |  |
| 158 (VQMTWSYPDEKNKRASVRRR) [compound 158] |  |  |  | 19 | 11 | 16 | 11 |
| 145 (ISDFGLAKKLAVGRHSFSRR) [compound 145] |  |  |  | 27 | 26 | 21 | 30 |
| 147 (RDIRQSPKRGFLRSASLGRR) [compound 147] |  |  |  | 26 | 26 | 13 | 16 |
| 113 (GENVLKKSMKSRVKG) [compound 113] | 10 | 10 | 16 |  |  |  |  |
| 160 (PFEVVWYKDKRQLRSSKKYK) [compound 160] |  |  |  | 18 | 13 | 9 | 7 |
| 116 (EEGTFRSSIRRLSTRRR) [compound 116] |  |  |  | 71 | 92 | 70 | 57 |
| 162 (KKKFSFKKPFKLSGLSFKRN) [compound 162] |  |  |  | 17 | 19 | 17 | 19 |
| 115 (NRKKKRTSFKRKA) [compound 115] |  |  |  | 80 | 91 | 55 | 56 |
| 119 (KKRFSFKKSFKLSGFSFKKN) [compound 119] |  |  |  | 61 | 81 | 94 | 98 |
| 92 (DGQKRKKSLRKKLD) [compound 92] | 38 | 51 | 36 |  |  |  |  |
| 129 (VQRHRSMRKTFARYLSFRRD) [compound 129] |  |  |  | 40 | 65 | 58 | 37 |
| 123 (KKRFSFKKSFKLSGFSFKKN) [compound 123] |  |  |  | 49 | 67 | 58 | 73 |
| 164 (TEGKMARVAWKGKRRSKARK) [compound 164] |  |  |  | 16 | 12 | 6 | 6 |
| 84 (QKKSRLRRRASQLKI) [compound 84] | 53 | 52 | 39 |  |  |  |  |
| 100 (WKGKRRSKARKKRK) [compound 100] | 26 | 13 | 14 |  |  |  |  |
| 134 (RSRSRSRSKSKDKRKSRKRS) [compound 134] |  |  |  | 34 | 32 | 54 | 39 |
| 86 (RQRKRKLSFRRRTDKD) [compound 86] | 48 | 63 | 47 |  |  |  |  |
| 122 (RAITSTLASSFKRRR) [compound 122] |  |  |  | 49 | 72 | 43 | 44 |
| 165 (TEEKSKKRKKKHRKNSRKHK) [compound 165] |  |  |  | 16 | 12 | 15 | 10 |
| 80 (KKKKKRFSFKKSFKL) [compound 80] | 56 | 71 | 65 |  |  |  |  |
| 139 (RPTPGDGEKRSRIKKSKKRK) [compound 139] |  |  |  | 30 | 24 | 39 | 44 |
| 85 (RFARKGSLRQKNV) [compound 85] | 52 | 86 | 42 |  |  |  |  |
| 99 (AGWRKKTSFRKPKED) [compound 99] | 27 | 27 | 37 |  |  |  |  |
| 155 (RWDKRRWRKIPKRPGSVHRT) [compound 155] |  |  |  | 21 | 26 | 10 | 12 |
| 136 (RARRDSLKKIEIW) [compound 136] |  |  |  | 32 | 33 | 26 | 28 |
| 163 (PPRTPGWHQLQPRRVSFRGE) [compound 163] |  |  |  | 16 | 14 | 30 | 10 |
